We go through 16 molecules from patent US20260234247A1 (published 2026).

Changes are numbered by the printed parent chain.

By EC50 is commonly meant the concentration that produces a half-maximal response. One may read the koff as the first-order rate constant of dissociation. A high value points to a short-lived complex. As a reminder, the Kd is a measure of binding affinity in units of concentration. As a reminder, the kon is the rate constant with which the complex forms. Read a high kon as fast association.

Sequences and labels used below:
B1: LK-RB2-45 (antibody, human IgG4 S228P, kappa, V domains shown)
VH: QIQLVQSGPELKKPGETVKISCKASGYTFTTYGMSWVKQTPGKGLQWMGWINVYSGVPTYADDFKGRFAFSLEASASTAYLQINNLKNEDTASYFCARRGDYDGHYFDYWGQGTTLTVSS
VL: DIVMTQSPATLSVTPGDRVSLSCRASQSISDYLNWYQQKSHESPRLLIKYVSQSISGIPSRFSGSGSGSDFTLSINSVEPEDIGVYYCQNGHNFPLTFGGGTKLELKR
B2: J19.h1 (antibody, human IgG4 S228P, kappa, V domains shown)
VH: QITLKESGPTLVKPTQTLTLTCTFSGFSLNTYAMGVSWIRQPPGKALEWLASIWWNGNKYNNPSLKSRLTVTKDTSKNQVVLTMTNMDPVDTATYYCAHSRIIRFTDYVMDAWGQGTLVTVSS
VL: DIQMTQSPSSLSTSVGDRVTITCRASEDIYNDLAWYQQKPGKAPKLLIYNANSLHTGVASRFSGSGSGTDFTFTISSLQPEDVATYFCQQYYDYPLTFGQGTKLEIKR
B3: LK-RB2-6 (antibody, human IgG4 S228P, kappa, V domains shown)
VH: B1 VH with T40A, Q46E, V53I, A74T, S93T, G104S, H105F
VL: DIVMSQSPSSLAVSVGEKVTVSCKSSQSLLYSYNQKNYLAWYQQKPGQSPKLLIYWSSTRESGVPDRFTGSGSGTDFTLTISSVKAEDLAVYYCQQCYNYPYTFGGGTKLEIKR
B4: LK-RB2-12 (antibody, human IgG4 S228P, kappa, V domains shown)
VH: B1 VH with Q46K, V53I, A69V, A74I, Y80H, S93T, G100K, D103S, Y106C
VL: DIVLTQSPASLAVSPGQRATISCRASESVDTYGISFMHWYQQKPGQPPKLLIYRASNLESGIPARFSGSGSRTDFTLTINPVETDDVAIYYCQQSKKDPYTFGGGTKLEIKR
B5: LK-RB2-15 (antibody, human IgG4 S228P, kappa, V domains shown)
VH: B1 VH with T40A, Q46K, A74I, N88D, S93T, G100K, D103S, Y106C
VL: B4 VL with P15L, I21F, I89T, D98E
B6: LK-RB2-1 (antibody, human IgG4 S228P, kappa, V domains shown)
VH: QIQLVQSGPELKKPGETVKISCKASGYTFTTYGMSWVKQAPGKGLKWMGWINTYSGVSTYADDFKGRFAFSLETSASTAYLQINNLKNEDTATYFCARRYDYDGYAMDYWGQGTSVTVSS
VL: B3 VL with V21M, Y31F, Y33S, S57A, S71R, A86T, C97Y, Y98D, N99T, Y102P
B7: LK-RB2-13 (antibody, human IgG4 S228P, kappa, V domains shown)
VH: B6 VH with K46Q, S58P, Y60F, E73D, Y100I, D101N, Y102W
VL: B3 VL with I2S, V21M, Y33G, N37S, S57A, C97Y, N99S
B8: LK-RB2-4 (antibody, human IgG4 S228P, kappa, V domains shown)
VH: EVQLVESGGDLVKPGGSLKLSCAASGFTFSNYGMSWVRQTPDKRLEWVATISSGGSYTFYPDSVKGRFTISRDNAKNTLYLQMSSLKSEDTALYYCARDYYYGKTIEGYFDYWGQGTTLTVSS
VL: DIQMTQTTSSLSASLGDRVTISCRANQDISNYLNWYQQKPDGTVKLLIYYTSRLHSGVPSRFSGSGSGTDYSLTISDLEQEDIATYFCQQGNTLPWTFGGGTKLEIKR
B9: LK-RB2-3 (antibody, human IgG4 S228P, kappa, V domains shown)
VH: QLQLQQSDAELVKPGASVKISCKVSGYSFTDHTIHWMKQRPEQGLEWIGYIYPRDGSTKENEKFTGKATLTADKSSSTAYMQLTSLTSEDSAVYFCTGSGFDYWGQGTSLTVSS
VL: DIKMTQSPSSMYASLGERVTITCKASQDIKSYLSWFQQKPGKSPKTLIYRANRLVDGVPSRFSGSGSGQDYSLTINSLEYEDMEIYYCLQYDEFPYTFGGGTKLEIKR
B10: LK-RB2-2 (antibody, human IgG4 S228P, kappa, V domains shown)
VH: DVKLEESGEGLVKPGGSLKLSCAASGFTFSSYAMSWVRQTPEKRLEWVAYISSGGDYFHYADTVKGRFTISRDNARNTLYLQMSSLKSEDTAMYYCTREGAHYDSSYLAWFAHWGQGTLVTVSA
VL: DIQMTQSPASLSVSVGETVTITCRASENIYSNLAWYQQRQGKSPQLLVYAATNLADGVPSRFSGSGSGTQYSLKINSLQSEDFGSYYCQQFWDNPLTFGAGTKLELKR
B11: LK-RB2-7 (antibody, human IgG4 S228P, kappa, V domains shown)
VH: B10 VH with E5V, K43M, Y57H, H59Y, N77S, H102S, S106N, Y107F, H113Y
VL: B10 VL with R39K, Q40E, A50G, Q90N, N94I
B12: LK-RB2-9 (antibody, human IgG4 S228P, kappa, V domains shown)
VH: DVQLQESGPGLVKPSQSLSLTCSVTGYSITSGYYWNWIRQFPGNKLEWMGYIGYDGNNNYNPSLKNRISITRDTSKNQFFLKLNSLTTEDTATYYCAREGSTMVTSWFAYWGQGTLVTVSA
VL: B10 VL with R39K, A50G, S65R, G68D, Q90H, N94T, L96Y, A100G, L106I
B13: LK-RB1-16.h2 (antibody, human IgG4, kappa, V domains shown)
VH: QVQLQESGPGLVKPSETLSLTCTVSGFSLISNAISWIRQPPGKGLEWLGVIWGDGNTIYHSALRSRLTISKDTSKNQVFLKLSSVTAADTAVYYCAKANWDGYYFDYWGQGTTVTVSS
VL: DIQMTQSPSTLSASVGDRVTITCHASQSVDFWLNWYQQKPGKAPKLLIYKASNLHTGVPSRFSGSGSGTEFTLTISSLQPDDFATYYCQQGQSYPLTFGQGTKLEIKR
notes: Humanized form of LK-RB1-16
B14: LK-RB1-16.h3 (antibody, human IgG4, kappa, V domains shown)
VH: B13 VH
VL: B13 VL with Y49S
notes: Humanized form of LK-RB1-16
B15: LK-RB1-16.h1 (antibody, human IgG4, kappa, V domains shown)
VH: B13 VH with L67V, V78F, F79S
VL: B13 VL
notes: Humanized form of LK-RB1-16
B16: LK-RB1-16 (antibody, human IgG4 S228P, kappa, V domains shown)
VH: QVQLKESGPGLVAPSQSLSITCTVSGFSLISNAISWVRQPPGKGLEWLGVIWGDGNTIYHSALRSRLTISKDNSKSQVFLKLNSLQIDDTATYYCAKANWDGYYFDYWGQGTTLTVSS
VL: DIQMNQSPSSLSASLGDTITITCHASQSVDFWLNWYQQKPGNIPKLLISKASNLHTGVPSRFSGSGSGTTFTLTISSLQPEDIATYYCQQGQSYPLTFGSGTKLEIKR
notes: Anti-LILRB1 antibody from mouse hybridoma; parental antibody of LK-RB1-16.h1 to h3

T1 sequence (Q8N423 22-597): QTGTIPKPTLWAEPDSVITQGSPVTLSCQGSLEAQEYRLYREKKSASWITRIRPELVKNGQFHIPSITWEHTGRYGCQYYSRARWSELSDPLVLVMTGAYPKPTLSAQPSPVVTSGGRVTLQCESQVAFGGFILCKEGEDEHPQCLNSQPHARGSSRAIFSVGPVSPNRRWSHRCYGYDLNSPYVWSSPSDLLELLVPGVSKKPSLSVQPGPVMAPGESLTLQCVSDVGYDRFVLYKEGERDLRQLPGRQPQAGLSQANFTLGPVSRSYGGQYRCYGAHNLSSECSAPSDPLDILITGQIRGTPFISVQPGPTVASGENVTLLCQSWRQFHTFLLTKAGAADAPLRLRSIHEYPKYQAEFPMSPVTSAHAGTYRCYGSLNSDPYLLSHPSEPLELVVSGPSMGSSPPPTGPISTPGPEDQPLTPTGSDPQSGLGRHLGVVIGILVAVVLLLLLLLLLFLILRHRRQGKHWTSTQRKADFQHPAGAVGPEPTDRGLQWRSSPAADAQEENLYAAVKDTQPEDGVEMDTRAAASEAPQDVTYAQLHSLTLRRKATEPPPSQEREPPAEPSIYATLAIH

One assay concerns the target T1, human LILRB2 expressed on CHOK1 cells (CHOK1-hLILRB2) (human, UniProt Q8N423 22-597).
T1 construct: whole, on cells; also called CHOK1-LILRB2
The assay is described as follows: FACS binding to CHOK1-hLILRB2 cells. (In general: In flow cytometry, cells or beads pass a laser one at a time.)
B1 had a half-maximal effective concentration (EC50) of 0.3 nM. In other words, the sub-nanomolar range.
The same measure, in the same setting: the same measure for B2: 0.15 nM.

For a further assay, the target named is T2, human LILRB1 expressed on CHOK1 cells (CHOK1-hLILRB1) (human, UniProt Q8NHL6 24-650).
T2 construct: whole, on cells; also called CHOK1-LILRB1
T2 sequence (Q8NHL6 24-650): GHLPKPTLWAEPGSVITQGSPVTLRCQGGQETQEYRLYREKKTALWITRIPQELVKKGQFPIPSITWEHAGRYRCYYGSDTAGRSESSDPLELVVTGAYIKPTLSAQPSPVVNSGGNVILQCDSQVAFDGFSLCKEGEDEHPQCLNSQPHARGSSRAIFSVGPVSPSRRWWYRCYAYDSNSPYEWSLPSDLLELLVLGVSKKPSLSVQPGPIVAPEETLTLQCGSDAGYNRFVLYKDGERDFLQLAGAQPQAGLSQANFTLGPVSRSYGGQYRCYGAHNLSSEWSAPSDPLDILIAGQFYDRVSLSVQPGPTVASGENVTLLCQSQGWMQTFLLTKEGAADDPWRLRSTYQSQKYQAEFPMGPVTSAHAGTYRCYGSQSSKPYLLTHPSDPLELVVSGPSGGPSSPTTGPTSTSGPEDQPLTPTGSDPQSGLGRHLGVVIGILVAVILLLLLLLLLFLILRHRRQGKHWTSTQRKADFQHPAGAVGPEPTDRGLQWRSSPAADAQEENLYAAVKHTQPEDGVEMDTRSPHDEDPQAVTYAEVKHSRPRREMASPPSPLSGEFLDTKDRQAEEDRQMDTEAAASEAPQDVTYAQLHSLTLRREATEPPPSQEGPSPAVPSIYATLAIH
Nature of the assay: FACS binding to CHOK1-hLILRB1 cells.
B1 came in with an EC50 of 1.48 nM.
For the molecule B2, the binding result was “no binding”.

The target of another assay is T3, human LILRB2 (human, UniProt Q8N423 22-460, limits assumed).
T3 construct: also called hLILRB2
T3 sequence (Q8N423 22-460 limits assumed): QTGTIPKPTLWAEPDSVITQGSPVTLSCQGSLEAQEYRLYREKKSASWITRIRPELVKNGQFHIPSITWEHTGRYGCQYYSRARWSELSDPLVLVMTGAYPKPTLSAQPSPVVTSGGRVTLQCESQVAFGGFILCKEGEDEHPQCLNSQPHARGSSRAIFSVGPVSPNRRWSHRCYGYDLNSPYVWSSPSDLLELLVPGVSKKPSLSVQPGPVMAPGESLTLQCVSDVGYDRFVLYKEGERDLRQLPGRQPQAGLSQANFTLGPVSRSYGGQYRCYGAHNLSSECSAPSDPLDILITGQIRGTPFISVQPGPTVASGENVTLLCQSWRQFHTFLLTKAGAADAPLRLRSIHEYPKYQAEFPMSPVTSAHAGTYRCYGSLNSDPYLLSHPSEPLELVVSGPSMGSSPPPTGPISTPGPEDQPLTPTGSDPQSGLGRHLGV
Nature of the assay: Octet off-rate ranking.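 Note: antibody dissociation rate constants against cynomolgus LILRB2 plus human LILRB1, LILRB2, LILRA1 and LILRA2, measured on an Octet instrument to rank binding.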 Background: Biolayer interferometry detects binding as a change in optical thickness at a sensor tip.
From the text: Binding affinity of anti-LILRB1 and anti-LILRB2 antibodies against human LILRB1, LILRB2, LILRA1, LILRA2 and cynomolgus LILRB2 was ranked by measuring dissociation rate constant (Kdis) using the Octet system.
B3 gave a koff of 0.00167 s⁻¹.
On the same count and under the same terms, the same measure for B4: 0.000662 s⁻¹; for B5: 6.22e-05 s⁻¹.
The same measure, in the same setting: the same measure for B6: 0.00341 s⁻¹.
For B7, the koff was 0.00304 s⁻¹.
B8 registered a koff of 0.000157 s⁻¹.
B9 yielded a koff of 3.91e-05 s⁻¹.
Turning to B10, the koff amounted to 0.000757 s⁻¹.
Still for that read-out and setting: the same measure for B11: 0.0014 s⁻¹.
Same read-out and setting: to B12 belongs 0.00135 s⁻¹.

Another assay deals with T4, human LILRB1-his (human, UniProt Q8NHL6 24-458, limits assumed).
T4 construct: Analyte of the Biacore run; not shown: His tag
T4 sequence (Q8NHL6 24-458 limits assumed): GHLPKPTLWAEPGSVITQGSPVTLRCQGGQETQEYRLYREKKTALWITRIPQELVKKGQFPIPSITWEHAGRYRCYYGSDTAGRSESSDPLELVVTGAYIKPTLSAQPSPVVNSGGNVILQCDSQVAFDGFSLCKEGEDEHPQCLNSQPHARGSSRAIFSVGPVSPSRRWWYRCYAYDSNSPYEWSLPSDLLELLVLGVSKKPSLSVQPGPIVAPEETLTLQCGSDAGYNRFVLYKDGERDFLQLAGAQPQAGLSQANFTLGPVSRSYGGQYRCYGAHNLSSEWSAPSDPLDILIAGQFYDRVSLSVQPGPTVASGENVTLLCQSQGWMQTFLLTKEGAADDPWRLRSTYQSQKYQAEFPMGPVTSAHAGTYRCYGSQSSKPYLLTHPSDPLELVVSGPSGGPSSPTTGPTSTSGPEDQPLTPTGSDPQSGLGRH
Nature of the assay: SPR (Biacore 8K), antibody captured via Fc, LILRB1-his as analyte, 1:1 model. Background: SPR reads the build-up and loss of mass on a sensor chip optically.
In the case of B13, the Kd turned out to be 0.235 nM, the koff was 0.000112 s⁻¹ and the on-rate constant (kon) is 476000 M⁻¹ s⁻¹.
Take B14: the affinity, expressed as Kd, was 0.24 nM; the koff is 0.000107 s⁻¹; the kon was determined as 444000 M⁻¹ s⁻¹.
For the molecule B15, the Kd turned out to be 0.507 nM, the koff was found to be 0.0002 s⁻¹ and the kon amounted to 394000 M⁻¹ s⁻¹.
For B16 the same measures were 0.194 nM, 0.000108 s⁻¹ and 556000 M⁻¹ s⁻¹.

A further assay concerns the target T1, human LILRB2 expressed on CHOK1 cells …. Nature of the assay: cell based RBA, flow cytometry: blocking of HLA-G binding to CHOK1-hLILRB2 cells.
Take B1: the EC50 came to 0.0673 nM and the “Top Inhibition” value came out at 81.6%.
For B2 the same measures were 0.0889 nM and 68.7%.
